The text below walks through data of article PMC10944109.

Assay [1] addresses LZ-Las17(281–633), biotinylated leucine zipper dimeric form of Las17 residues 281–633 (S. cerevisiae). The assay can be described thus: supernatant depletion binding assay; biotinylated LZ-Las17(281–633) dimer on magnetic streptavidin beads (16 nM to 2.06 μM dimer for the WT isotherm; 0.6 μM dimer for mutants and CA fusions); 50 nM Arp2/3 complex in solution; 1x PC buffer plus 0.05% Tween-20; 70 min, room temperature; Arp2/3 complex left in the supernatant quantified by anti-Arp3 dot blot.

For assay [2], the target named is LZ-Myo5(1146–1220), biotinylated leucine zipper dimeric form of the Myo5 CA segment (S. cerevisiae) (UniProt P03069). Kind of assay: supernatant depletion binding assay; biotinylated LZ-Myo5–CA dimer on magnetic streptavidin beads (25 nM to 1.6 μM dimer for the WT isotherm; 0.4 μM dimer for mutants); 50 nM Arp2/3 complex in solution; 1x PC buffer plus 0.05% Tween-20; 70 min, room temperature; Arp2/3 complex left in the supernatant quantified by anti-Arp3 dot blot.

Assay [3] concerns the target Monomeric Las17(281–633) (S. cerevisiae) (UniProt Q12446).

Regarding “S. cerevisiae Arp2/3 complex with Arp2(V142A, Y146A) (from UniProt P47117 1-449; P32381 1-391; P38328 1-384; P53731 1-342)”, the reduction in binding compared with the WT complex in assay [1] worked out at 50%.
As to “WT S. cerevisiae Arp2/3 complex (ARPC2 with C-terminal tandem 12xHis and TwinStrep tags) (from UniProt P47117 1-449; P32381 1-391; P38328 1-384; P53731 1-342)”, the values for the Kd in assay [1] and in assay [2] were 160 nM and 130 nM, respectively.
With “S. cerevisiae Arp2/3 complex with Arp3(R371D) (from UniProt P47117 1-449; P32381 1-391; P38328 1-384; P53731 1-342)”, in assay [3], the maximum polymerization rate in pyrene actin polymerization assay as percent of WT activity; 20 nM Arp2/3 complex, 3 μM 15% pyrene actin, Las17(281–633), PC buffer (% of the WT activity) stood at 56. Also, the reduction in binding compared with WT Arp2/3 complex in assay [1] stood at 30%.
Consider “S. cerevisiae Arp2/3 complex with the CA segment of N-WASP fused to Arp2 (Arp2–CA fusion complex) (from UniProt P47117 1-449; P38328 1-384; P53731 1-342)”, for which, in assay [1], the percent of the complex pulled down at 0.6 μM (LZ-Las17(281–633))2 came out at 30%.
In the case of “S. cerevisiae Arp2/3 complex with ARPC1(F183A, K185D) (from UniProt P47117 1-449; P32381 1-391; P38328 1-384; P53731 1-342)”, the reduction in binding compared with the WT complex in assay [1] turned out to be 50%.
On to “S. cerevisiae Arp2/3 complex with Arp3(W191A, T192A) (from UniProt P47117 1-449; P32381 1-391; P38328 1-384; P53731 1-342)”, for which the maximum polymerization rate in pyrene actin polymerization assay as percent of WT activity; 20 nM Arp2/3 complex, 3 μM 15% pyrene actin, 1.5 μM monomeric Las17(281–633), PC buffer (% of the WT activity) in assay [3] turned out to be 17.
“S. cerevisiae Arp2/3 complex with the CA segment of N-WASP fused to Arp3 (Arp3–CA fusion complex) (from UniProt P32381 1-391; P38328 1-384; P53731 1-342)”: in assay [1], the percent of the complex pulled down at 0.6 μM (LZ-Las17(281–633))2 was determined as 73%.
As for “S. cerevisiae Arp2/3 complex with Arp3(R403D, K404D) (from UniProt P47117 1-449; P32381 1-391; P38328 1-384; P53731 1-342)”, the maximum polymerization rate in pyrene actin polymerization assay as percent of WT activity; 20 nM Arp2/3 complex, 3 μM 15% pyrene actin, 1.5 μM monomeric Las17(281–633), PC buffer (% of the WT activity) in assay [3] is 20.

As usually defined, the Kd is the free concentration of one partner at which half of the binding sites on the other are occupied at equilibrium, for simple one-to-one binding.
